How the values were obtained:
[1] = molecular target: T1, RC3H1-N2 (Roquin-1, RING, ROQ and CCCH zinc finger domains) (Homo sapiens, UniProt Q5TC82 Q5TC82:2-452); test: EMSA; same buffer; similar to RC3H1-N1; details: tags: N-terminal His7 cleaved with TEV protease, E. coli Rosetta 2 (DE3), pQLinkH; label: 5'-32P; hairpin
T1 sequence: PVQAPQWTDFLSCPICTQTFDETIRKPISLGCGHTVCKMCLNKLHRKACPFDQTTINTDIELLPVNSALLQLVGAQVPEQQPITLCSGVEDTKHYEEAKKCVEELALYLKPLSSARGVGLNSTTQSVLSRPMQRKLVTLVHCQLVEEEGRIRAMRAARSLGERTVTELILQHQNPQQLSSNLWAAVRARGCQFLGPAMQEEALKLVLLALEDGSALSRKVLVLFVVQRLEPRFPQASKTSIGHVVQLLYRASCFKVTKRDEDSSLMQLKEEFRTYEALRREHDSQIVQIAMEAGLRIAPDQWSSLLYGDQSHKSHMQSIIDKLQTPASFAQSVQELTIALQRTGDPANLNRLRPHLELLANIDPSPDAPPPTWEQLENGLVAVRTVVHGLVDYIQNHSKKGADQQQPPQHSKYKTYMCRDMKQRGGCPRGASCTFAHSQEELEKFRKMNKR
Description: (§1) The EMSA was performed as described before⁴⁹ with the following modifications: RNA was prepared by 5′ end-labeling of commercially synthesized RNA oligonucleotides with [γ-³²P]-ATP using T4 polynucleotide kinase (NEB). Labeled RNA was gel purified and eluted and adjusted with H₂O to 1 pmol/μl. 50 fmol of labelled RNA was used per 20 μl reaction. Prior to binding reactions, a master mix containing labelled RNA, lx binding buffer (20 mM Tris-HCl (pH 7.5), 50 mM KCl, 5 mM MgCl₂, 20 μM ZnSO₄, 10% glycerol), 2 mM DTT, 0.05 mg/ml BSA, and 5 μg/ml heparin was heated at 90° C. for 1 min and gradually cooled down to room temperature. In parallel, a dilution series of 10× protein stocks was prepared in 1× protein dilution buffer (1× binding buffer, 5 μg/ml heparin). For each binding reaction, 2 μl of the 10× protein stock was added to 18 μl of the mastermix at room temperature for 2 h. After addition of 4 μl 6× loading buffer (30% glycerol, bromphenol blue, xylene cyanol), RNP complexes were resolved by nondenaturing PAGE (6% polyacrylamide, 0.5×TBE, 5% glycerol) in ice-cold 0.5×TBE buffer containing 20 μM ZnSO₄ at 100 V for 40 min. The protein-bound RNA and the free RNA were quantified using a phosphorimager.

[2] = molecular target: T2, RC3H1-N1 (Roquin-1, RING and ROQ domains) (Homo sapiens, UniProt Q5TC82 Q5TC82:2-399); test: EMSA; 20 mM Tris-HCl pH 7.5, 50 mM KCl, 5 mM MgCl2, 20 uM ZnSO4, 5 ug/ml heparin, room temperature; binding independent of CCCH zinc finger; details: tags: N-terminal His7 cleaved with TEV protease, E. coli Rosetta 2 (DE3), pQLinkH; label: 5'-32P; hairpin
T2 sequence: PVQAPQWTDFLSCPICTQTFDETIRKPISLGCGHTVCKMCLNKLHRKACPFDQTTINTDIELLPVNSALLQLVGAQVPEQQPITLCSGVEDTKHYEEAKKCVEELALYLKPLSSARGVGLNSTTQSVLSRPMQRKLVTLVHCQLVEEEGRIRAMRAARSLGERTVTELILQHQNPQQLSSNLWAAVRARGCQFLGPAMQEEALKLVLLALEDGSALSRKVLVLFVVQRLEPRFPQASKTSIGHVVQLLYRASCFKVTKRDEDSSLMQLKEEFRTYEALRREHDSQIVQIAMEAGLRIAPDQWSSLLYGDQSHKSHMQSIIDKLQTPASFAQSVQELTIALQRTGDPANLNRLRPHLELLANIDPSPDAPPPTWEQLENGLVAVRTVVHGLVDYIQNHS
Description: as §1

[3] = molecular target: T1, RC3H1-N2 (Roquin-1, RING, ROQ and CCCH …); test: EMSA; same buffer; higher affinity than RC3H1-N1; details: tags: N-terminal His7 cleaved with TEV protease, E. coli Rosetta 2 (DE3), pQLinkH; label: 5'-32P; hairpin
Description: as §1

[4] = molecular target: T1, RC3H1-N2 (Roquin-1, RING, ROQ and CCCH …); test: EMSA; same buffer; higher affinity than for the 23 nt hairpin; reduced by antisense LNA SEQ 6 (FIG. 5c); details: tags: N-terminal His7 cleaved with TEV protease, E. coli Rosetta 2 (DE3), pQLinkH; label: 5'-32P
Description: as §1

AUUUCUGUGAAAU (ssRNA) [ICOS CDE-like stem-loop 13 nt]: binds [1]; binds [2].

ACCCUUACAUUAUGUAUGAGGGA (ssRNA) [A20 23 nt hairpin]: binds [3].

AUAUAUAAUAUACCCUUACAUUAUGUAUGAGGGAUUU (ssRNA) [A20 37 nt]: binds [4].

From patent publication US20170298359, “OLIGONUCLEOTIDE TARGETED TO THE A20-THREE PRIME UNTRANSLATED REGION” (Max-Delbrück-Centrum für Molekulare Medizin in …, published 2017)
